Source: PMC8497518, “ssDNA recombineering boosts in vivo evolution of nanobodies displayed on bacterial surfaces” (Communications Biology, 2021)
Residue numbers refer to the chain shown, from its start. Names may count otherwise.

Columns and labels:
[1] = biological target: TirM^EPEC, extracellular domain of the translocated intimin receptor (Tir) of enteropathogenic E. coli (enteropathogenic E. coli (EPEC)); test: SEC; purified TirM^EPEC in solution, size exclusion chromatography
[2] = biological target: T1, TirM^EHEC, extracellular domain of the translocated intimin receptor (Tir) of enterohaemorrhagic E. coli (Escherichia coli EHEC; strain not …, UniProt Q7DB77, biotin (NHS-biotin, biotin:protein 20:1) for flow cytometry and MACS); test: flow cytometry on cells; E. coli displaying the intimin-Nb fusion (multivalent) incubated 90 min at 4 °C in PBS with biotinylated antigen (0-250 nM TirM^EPEC or 0-50 nM TirM^EHEC), stained with streptavidin-allophycocyanin; median fluorescence fitted to one-site specific binding; apparent KD; conditions: one partner purified
T1 construct: Translocated intimin receptor Tir of enterohaemorrhagic E. coli (EHEC), extracellular TirM domain; also called EHEC TirM; former antigen

[3] = biological target: T2, TirM^EPEC, extracellular domain of the translocated intimin receptor (Tir) of enteropathogenic E. coli (Escherichia coli EPEC; strain not …, UniProt B7UM99, biotin (NHS-biotin, biotin:protein 20:1) for flow cytometry and MACS); test: ELISA; Maxisorp plates coated with His-tagged TirM at 10 ug/mL in PBS; purified monovalent Nb in 3% skimmed milk in PBS, 0-100 nM (TD4) or 0-400 nM (mutants), 90 min at 23 °C; detected with anti-E-tag; one-site specific binding fit; apparent KD; conditions: both partners purified
T2 construct: Translocated intimin receptor Tir of enteropathogenic E. coli (EPEC), extracellular TirM domain; also called EPEC TirM; new antigen
Target sequence in this assay (B7UM99 255-362): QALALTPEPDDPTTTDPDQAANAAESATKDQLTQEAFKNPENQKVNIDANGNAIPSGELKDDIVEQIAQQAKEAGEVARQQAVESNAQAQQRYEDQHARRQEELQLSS

[4] = biological target: T2, TirM^EPEC, extracellular domain of the …; test: as above; conditions: both partners purified; remark: listed apart in the source
Target sequence in this assay (B7UM99 255-362): as above

[5] = biological target: T1, TirM^EHEC, extracellular domain of the …; test: as above; conditions: both partners purified
Target sequence in this assay (Q7DB77 252-362): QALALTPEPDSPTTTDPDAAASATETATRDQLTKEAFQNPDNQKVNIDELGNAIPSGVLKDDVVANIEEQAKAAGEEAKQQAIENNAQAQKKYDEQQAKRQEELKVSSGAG

[6] = biological target: T2, TirM^EPEC, extracellular domain of the …; test: flow cytometry on cells; E. coli displaying the intimin-Nb fusion (multivalent) incubated 90 min at 4 °C in PBS with biotinylated antigen (0-250 nM TirM^EPEC or 0-50 nM TirM^EHEC), stained with streptavidin-allophycocyanin; median fluorescence fitted to one-site specific binding; apparent KD; conditions: one partner purified

Molecule: TirM^EPEC, extracellular domain of the translocated intimin receptor (Tir) of enteropathogenic E. coli (domain or fragment)
- stoichiometry N [1]: 2

B1: Nb TD4 displayed on E. coli as a fusion to the outer membrane anchoring domain of intimin (VHH)
VHH: QVQLVDAGGGSVQAGGSLTLSCVASGAAYSTNLLGWFRQAPGKEREGVASIYRGNSATNYADSVKGRFTISQDKTKYTIYLQMNSLKPEDSAMYYCAHGTAPYWHTPIPTLSEDKYFYWGQGTQVTVSS
notes: VHH TD4; multivalent on the bacterial surface; also called parental Nb; non-evolved TD4; not shown: intimin outer membrane anchoring domain, N-terminal, kept
- Kd [2]: 0.41 nM

B2: Nb TD4^H107Y, secreted His6-tagged VHH-HlyA fusion (monovalent, purified) (VHH)
VHH: B1 VHH with H105Y
notes: as the VHH of m7 with H107Y; also called Nb H107Y
- Kd [3]: 20.8 ± 2.31 nM
- Kd [4]: 20.1 nM
- Kd [5]: 47.7 nM

B3: Nb TD4^T108R, secreted His6-tagged VHH-HlyA fusion (monovalent, purified) (VHH)
VHH: B1 VHH with T106R
notes: as the VHH of m7 with T108R; also called Nb T108R
- Kd [4]: 176 nM
- Kd [5]: 4.61 nM

B4: Nb TD4^D116G, secreted His6-tagged VHH-HlyA fusion (monovalent, purified) (VHH)
VHH: B1 VHH with D114G
notes: as the VHH of m7 with D116G; also called Nb D116G
- Kd [4]: 397 nM
- Kd [5]: 137 nM

B5: Nb TD4^H107Y displayed on E. coli as a fusion to the outer membrane anchoring domain of intimin (VHH)
VHH: B1 VHH with H105Y
notes: as the VHH of m3 with H107Y (CDR3); Evolved from TD4 by DIvERGE mutagenesis and MACS selection; also called Nb H107Y; not shown: intimin outer membrane anchoring domain, N-terminal, kept
- Kd [6]: 33.9 nM
- Kd [2]: 0.57 nM

B6: Nb TD4^T108R displayed on E. coli as a fusion to the outer membrane anchoring domain of intimin (VHH)
VHH: B1 VHH with T106R
notes: as the VHH of m3 with T108R (CDR3); Evolved from TD4 by DIvERGE mutagenesis and MACS selection; also called Nb T108R; not shown: intimin outer membrane anchoring domain, N-terminal, kept
- Kd [6]: 27.6 nM
- Kd [2]: 0.36 nM

B7: Nb TD4^D116G displayed on E. coli as a fusion to the outer membrane anchoring domain of intimin (VHH)
VHH: B1 VHH with D114G
notes: as the VHH of m3 with D116G (CDR3); Evolved from TD4 by DIvERGE mutagenesis and MACS selection; also called Nb D116G; not shown: intimin outer membrane anchoring domain, N-terminal, kept
- Kd [6]: 17.9 nM
- Kd [2]: 0.58 nM

B8: Nb TD4, secreted His6-tagged VHH-HlyA fusion (monovalent, purified) (VHH)
VHH: B1 VHH
notes: VHH TD4, as the VHH of m3; No cleavage of the HlyA part or the His tag is described; the fusion was detected by anti-E-tag in ELISA; also called parental TD4; non-evolved TD4; source: E. coli HB2151 with pVDL9.3 (HlyBD) and a pEHLYA derivative, secreted, purified from culture medium (Talon resin)
- Kd [5]: 5.55 nM
